Results taken from paper PMC7573392, “Monitoring Allosteric Interactions with CXCR4 Using NanoBiT Conjugated Nanobodies” (Cell Chemical Biology, 2020).

What was measured:
LgBiT-CXCR4 [1] = biological target: T1, LgBiT-CXCR4 (Homo sapiens, UniProt P61073); experiment: NanoBiT saturation binding (complemented luminescence) in HEK293 cells stably expressing LgBiT-CXCR4; details: increasing concentrations added to HEK LgBiT-CXCR4 cells
T1 construct: GSSG linker and TEV recognition site (EDLYFQS), between LgBiT and CXCR4 (N); expressed in transfected cells; whole cells in A1-A4, isolated membranes in A9/A10
T1 sequence (P61073 2-352 limits assumed): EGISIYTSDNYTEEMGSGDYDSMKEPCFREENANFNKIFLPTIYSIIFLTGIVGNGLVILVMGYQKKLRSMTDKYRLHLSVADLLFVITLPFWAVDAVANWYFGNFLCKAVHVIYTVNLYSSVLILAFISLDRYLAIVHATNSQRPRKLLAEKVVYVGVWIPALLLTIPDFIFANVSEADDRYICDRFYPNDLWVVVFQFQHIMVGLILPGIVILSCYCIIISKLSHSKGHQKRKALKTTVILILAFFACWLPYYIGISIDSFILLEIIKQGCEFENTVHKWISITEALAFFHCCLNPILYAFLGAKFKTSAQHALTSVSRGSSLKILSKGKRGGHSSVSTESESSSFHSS
Method: Saturation binding with VUN400-HiBiT was performed on HEK 293 cells stably expressing the LgBiT-CXCR4 receptor. Cells were plated at 30,000 cells/well in white 96-well plates previously coated with poly-D-lysine (10 μg/ml in PBS) in 100 μl complete media (DMEM with 10% FCS). After 24 hours, the media was removed and replaced with 100 μl HBSS containing VUN400-HiBiT within the range of 4-500 nM. Where used, CXCL12, AMD3100 or IT1t were also added at this point. The plate was incubated for two hours at 37°C. Furimazine (1:400 final concentration) was added to each well and the plate was incubated for a further 15 minutes at 37°C. Luminescence was measured using the PHERAstar FS plate reader.
Saturation binding curves of VUN400-HiBiT were fitted using the following equation: Specificbinding=Bmax×[B]/[B]+KD where Bmax is the maximal specific binding, [B] is the concentration of VUN400-HiBiT, and KD is the equilibrium dissociation constant (nM).

LgBiT-CXCR4 [2] = biological target: T1, LgBiT-CXCR4; experiment: NanoBiT association kinetic measurements (complemented luminescence) in HEK293 cells stably expressing LgBiT-CXCR4; assay type: binding; details: KD = koff/kon at LgBiT-CXCR4
Method: Cells (30,000 per well) were plated in white 96-well poly-D-lysine coated plates (10 μg/ml in PBS) as described above. After 24 hours, media was removed and replaced with 50 μl HBSS containing furimazine (1:400 final concentration) and incubated at 37°C for 10 minutes and basal luminescence was measured. […] The resulting luminescence was measured over 60 minutes at 37°C. Luminescence was measured using the PHERAstar FS plate reader.
Nanobody binding association kinetic data were fitted to the following mono-exponential association function: Y=Ymax(1−e^−kobs.t) where Ymax is the specific binding at infinite time, t is the time of incubation, and kobs is the rate constant for the observed rate of association.
kon and koff values were determined by simultaneously fitting nanobody binding association kinetic curves obtained at different nanobody concentrations (L) to the equation above with the relationship between kobs and the two kinetic binding rate constants kon and koff given by: kon=kobs−koff/L
Kinetically determined nanobody KD values were determined with the following equation: KD=koff/kon

## HiBiT: purified HiBiT-HaloTag fusion protein, circa 34 kDa (Promega)
LgBiT-CXCR4 [1]
  saturation binding (in words): linear, indicative of low affinity
LgBiT-CXCR4 [2]
  pKD (determined from kinetic rate constants): 6.4
